# B1: OsGH3-8: probable indole-3-acetic acid-amido synthetase GH3.8 from Oryza sativa, expressed in E. coli with N-terminal His-tag (protein, listed as Oryza sativa)
# chain: MAVMTDVSTTGTALRTPAAGAVKEGDVEKLRFIDEMTTNVDAVQERVLGEILGRNAGTEYLTKCGLDGATDRAAFRAKVPVVSYDDLQPYIQRIANGDRSPILSTHPVSEFLTSSGTSAGERKLMPTIMDELDRRQLLYSLLMPVMNLYVPGLDKGKGLYFLFVKSETKTPGGLTARPVLTSYYKSDHFKNRPYDPYHNYTSPTAAILCADAFQSMYAQMVCGLCQRNDVLRLGAVFASGLLRAIRFLQLNWEQLADDIESGELTPRVTDPSVREAVAAILLPDPELAKLIRAECSKGDWAGIITRVWPNTKYLDVIVTGAMAQYIPTLEFYSGGLPMACTMYASSECYFGLNLRPMCDPSEVSYTIMPNMGYFEFLPVDETGAASGDATQLVDLARVEVGREYELVITTYAGLNRYRVGDVLRVTGFHNAAPQFRFVRRKNVLLSIESDKTDEAELQRAVERASALLRPHGASVVEYTSQACTKRIPGHYVIYWELLTKGAGATVVDADTLGRCCLEMEEALNTVYRQSRVADGSIGPLEIRVVRPGTFEELMDYAISRGASINQYKVPRCVTFPPIVELLDSRVVSSHFSPALPHWTPARRSE
# modifications: N-terminal His-tag
# notes: probable indole-3-acetic acid-amido synthetase GH3.8 from Oryza sativa, expressed in E. coli with N-terminal His-tag
# B2: AtGH3-12: 4-substituted benzoates-glutamate ligase GH3.12 from Arabidopsis thaliana, His-tagged (protein, listed as Arabidopsis thaliana)
# chain: MKPIFDINETFEKQLKDLTSNVKSIQDNLLEEIITPNTKTEYLQRFLIDRFDKELFKKNVPIVSYEDIKPYLDRVVNGESSDVISARTITGFLLSSGTSGGAQKMMPWNNKYLDNLTFIYDLRMQVITKHVKGVEEGKGMMFLFTKQESMTPSGLPARVATSSYFKSDYFKNRPSNWYYSYTSPDEVILCPNNTESLYCHLLCGLVQRDEVVRTGSIFASVMVRAIEVLKNSWEELCSNIRSGHLSNWVTDLGCQNSVSLVLGGPRPELADTIEEICNQNSWKGIVKRLWPNTKYIETVVTGSMGQYVPMLNYYCNDLPLVSTTYGSSETTFGINLDPLCKPEDVSYTFMPNMSYFEFIPMDGGDKNDVVDLEDVKLGCTYEPVVTNFAGLYRMRVGDIVLVTGFYNNAPQFKFVRRENVVLSIDSDKTNEEDLFKAVSQAKLVLESSGLDLKDFTSYADTSTFPGHYVVYLEVDTKEGEEKETAQFELDEEALSTCCLVMEESLDNVYKRCRFKDGSIGPLEIRVVRQGTFDSLMDFFISQGASTGQYKTPRCIKSGKALQVLETCVVAKFFSI
# modifications: His-tag
# notes: 4-substituted benzoates-glutamate ligase GH3.12 from Arabidopsis thaliana, His-tagged
# B3: AtGH3-5: indole-3-acetic acid-amido synthetase GH3.5 from Arabidopsis thaliana, His-tagged (protein, listed as Arabidopsis thaliana)
# chain: MPEAPKKESLEVFDLTLDQKNKQKLQLIEELTSNADQVQRQVLEEILTRNADVEYLRRHDLNGRTDRETFKNIMPVITYEDIEPEINRIANGDKSPILSSKPISEFLTSSGTSGGERKLMPTIEEELDRRSLLYSLLMPVMSQFVPGLENGKGMYFLFIKSESKTPGGLPARPVLTSYYKSSHFKERPYDPYTNYTSPNETILCSDSYQSMYSQMLCGLCQHQEVLRVGAVFASGFIRAIKFLEKHWIELVRDIRTGTLSSLITDPSVREAVAKILKPSPKLADFVEFECKKSSWQGIITRLWPNTKYVDVIVTGTMSQYIPTLDYYSNGLPLVCTMYASSECYFGVNLRPLCKPSEVSYTLIPSMAYFEFLPVHRNNGVTNSINLPKALTEKEQQELVDLVDVKLGQEYELVVTTYAGLCRYRVGDLLRVTGFKNKAPQFSFICRKNVVLSIDSDKTDEVELQNAVKNAVTHLVPFDASLSEYTSYADTSSIPGHYVLFWELCLDGNTPIPPSVFEDCCLAVEESFNTVYRQGRVSDKSIGPLEIKIVEPGTFDKLMDYAISLGASINQYKTPRCVKFAPIIELLNSRVVDSYFSPKCPKWVPGHKQWGSN
# modifications: His-tag
# notes: indole-3-acetic acid-amido synthetase GH3.5 from Arabidopsis thaliana, His-tagged
# Assay: Synthesis of N-caprinoylamino acid using purified acylamino acid synthetase, UPLC-MS detection
# Type: biochemical
# Set-up: key: +: Detected; −: Not detected
# Conditions: substrates GABA and sodium caprate; +ATP
# Summary of the method: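 Purified enzyme (50 μg) with 5 mM amino acid, 5 mM sodium caprate, 10 mM ATP, 10 mM MgCl2, 1 mM DTT in Tris-HCl pH 8.0, 24 h at 25° C; product detected by UPLC-MS (ESI-negative) as the N-caprinoyl amino acid mass signal.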
row,signal of molecular weight corresponding to N-caprinoyl amino acid,Molecule
1,+,B1
2,+,B2
3,+,B3

# Same assay, conditions: substrates Gly and sodium caprate; +ATP
row,signal of molecular weight corresponding to N-caprinoyl amino acid,Molecule
1,+,B1
2,+,B2
3,+,B3

# Same assay, conditions: substrates L-Ala and sodium caprate; +ATP
row,signal of molecular weight corresponding to N-caprinoyl amino acid,Molecule
1,+,B1
2,+,B2
3,+,B3

# Same assay, conditions: substrates L-Arg and sodium caprate; +ATP
row,signal of molecular weight corresponding to N-caprinoyl amino acid,Molecule
1,+,B1
2,+,B2
3,+,B3

# Same assay, conditions: substrates L-Asn and sodium caprate; +ATP
row,signal of molecular weight corresponding to N-caprinoyl amino acid,Molecule
1,+,B1
2,+,B2
3,+,B3

# Same assay, conditions: substrates L-Asp and sodium caprate; +ATP
row,signal of molecular weight corresponding to N-caprinoyl amino acid,Molecule
1,+,B1
2,+,B2
3,+,B3

# Same assay, conditions: substrates L-Cys and sodium caprate; +ATP
row,signal of molecular weight corresponding to N-caprinoyl amino acid,Molecule
1,+,B1
2,+,B2
3,+,B3

# Same assay, conditions: substrates L-Gln and sodium caprate; +ATP
row,signal of molecular weight corresponding to N-caprinoyl amino acid,Molecule
1,+,B1
2,+,B2
3,+,B3

# Same assay, conditions: substrates L-Glu and sodium caprate; +ATP
row,signal of molecular weight corresponding to N-caprinoyl amino acid,Molecule
1,+,B1
2,+,B2
3,+,B3

# Same assay, conditions: substrates L-His and sodium caprate; +ATP
row,signal of molecular weight corresponding to N-caprinoyl amino acid,Molecule
1,+,B1
2,+,B2
3,+,B3

# Same assay, conditions: substrates L-Ile and sodium caprate; +ATP
row,signal of molecular weight corresponding to N-caprinoyl amino acid,Molecule
1,+,B1
2,+,B2
3,+,B3

# Same assay, conditions: substrates L-Leu and sodium caprate; +ATP
row,signal of molecular weight corresponding to N-caprinoyl amino acid,Molecule
1,+,B1
2,+,B2
3,+,B3

# Same assay, conditions: substrates L-Lys and sodium caprate; +ATP
row,signal of molecular weight corresponding to N-caprinoyl amino acid,Molecule
1,+,B1
2,+,B2
3,+,B3

# Same assay, conditions: substrates L-Met and sodium caprate; +ATP
row,signal of molecular weight corresponding to N-caprinoyl amino acid,Molecule
1,+,B1
2,+,B2
3,+,B3

# Same assay, conditions: substrates L-Phe and sodium caprate; +ATP
row,signal of molecular weight corresponding to N-caprinoyl amino acid,Molecule
1,+,B1
2,+,B2
3,+,B3

# Same assay, conditions: substrates L-Pro and sodium caprate; +ATP
row,signal of molecular weight corresponding to N-caprinoyl amino acid,Molecule
1,+,B1
2,+,B2
3,+,B3

# Same assay, conditions: substrates L-Ser and sodium caprate; +ATP
row,signal of molecular weight corresponding to N-caprinoyl amino acid,Molecule
1,+,B1
2,+,B2
3,+,B3

# Same assay, conditions: substrates L-Thr and sodium caprate; +ATP
row,signal of molecular weight corresponding to N-caprinoyl amino acid,Molecule
1,+,B1
2,+,B2
3,+,B3

# Same assay, conditions: substrates L-Trp and sodium caprate; +ATP
row,signal of molecular weight corresponding to N-caprinoyl amino acid,Molecule
1,+,B1
2,+,B2
3,+,B3

# Same assay, conditions: substrates L-Tyr and sodium caprate; +ATP
row,signal of molecular weight corresponding to N-caprinoyl amino acid,Molecule
1,+,B1
2,+,B2
3,+,B3

# Same assay, conditions: substrates L-Val and sodium caprate; +ATP
row,signal of molecular weight corresponding to N-caprinoyl amino acid,Molecule
1,+,B1
2,+,B2
3,+,B3

# Same assay, conditions: substrates β-Ala and sodium caprate; +ATP
row,signal of molecular weight corresponding to N-caprinoyl amino acid,Molecule
1,+,B1
2,+,B2
3,+,B3

# Assay: Synthesis of N-acylamino acids from various fatty acids using purified acylamino acid synthetase, UPLC-MS detection
# Type: biochemical
# Set-up: key: +: Detected; −: Not detected
# Conditions: substrates L-Asp and Capric acid
# Summary of the method: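 Purified enzyme (200 μg/mL) with 5 mM amino acid, 5 mM sodium fatty acid (3 mM palmitate or stearate, plus 10% methanol), 10 mM ATP, 10 mM MgCl2, 1 mM DTT in 50 mM Tris-HCl pH 8.0, shaken 24 h at 25 °C. Amino acid varied by enzyme; product mass detected by UPLC-MS (ESI-negative).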
row,signal of molecular weight corresponding to N-acylamino acid,Molecule
1,+,B1
2,+,B2
3,+,B3

# Same assay, conditions: substrates L-Asp and Caproic acid
row,signal of molecular weight corresponding to N-acylamino acid,Molecule
1,+,B1
2,+,B2
3,+,B3

# Same assay, conditions: substrates L-Asp and Caprylic acid
row,signal of molecular weight corresponding to N-acylamino acid,Molecule
1,+,B1
2,+,B2
3,+,B3

# Same assay, conditions: substrates L-Asp and Lauric acid
row,signal of molecular weight corresponding to N-acylamino acid,Molecule
1,+,B1
2,+,B2
3,+,B3

# Same assay, conditions: substrates L-Asp and Linoleic acid
row,signal of molecular weight corresponding to N-acylamino acid,Molecule
1,−,B1
2,+,B2
3,−,B3

# Same assay, conditions: substrates L-Asp and Palmitic acid
row,signal of molecular weight corresponding to N-acylamino acid,Molecule
1,+,B1
2,+,B2
3,+,B3

# Same assay, conditions: substrates L-Asp and myristic acid
row,signal of molecular weight corresponding to N-acylamino acid,Molecule
1,+,B1
2,+,B2
3,+,B3

# From patent publication US12281340B2, “Method of producing N-acyl-amino group-containing compound” (AJINOMOTO CO., INC., priority 2018, dated 2025)
